Starred links: 1 amine or outer side, 2 acyl side, 3 side chain; linkers in the order of their positions; H or OH if unused. Non-standard residues stand in square brackets, D forms with d. Groups on a side chain read outwards from the residue. No end group written: not given here. *: point of attachment. C18 diacid = O=C(O)CCCCCCCCCCCCCCCCC(=O)*; γGlu = O=C(O)[C@H](CCC(=O)[*:2])N[*:1]; AEEA = NCCOCCOCC(=O)O; Aib = CC(C)(N)C(=O)O

This passage reports EC50 [nM], 0% HSA and EC50 [nM], 0.1% HSA results from patent publication US12679878B2, “CRF2 receptor agonists and their use in therapy” (SANOFI, priority 2020, dated 2026).

For this assay, the target named is human corticotropin-releasing factor 2α (CRF2 α receptor) (human), Q13324. Kind of assay: cell-based or functional assay.
human corticotropin-releasing factor 2α (CRF2 α receptor) (human), Q13324, sequence (Q13324 20-411): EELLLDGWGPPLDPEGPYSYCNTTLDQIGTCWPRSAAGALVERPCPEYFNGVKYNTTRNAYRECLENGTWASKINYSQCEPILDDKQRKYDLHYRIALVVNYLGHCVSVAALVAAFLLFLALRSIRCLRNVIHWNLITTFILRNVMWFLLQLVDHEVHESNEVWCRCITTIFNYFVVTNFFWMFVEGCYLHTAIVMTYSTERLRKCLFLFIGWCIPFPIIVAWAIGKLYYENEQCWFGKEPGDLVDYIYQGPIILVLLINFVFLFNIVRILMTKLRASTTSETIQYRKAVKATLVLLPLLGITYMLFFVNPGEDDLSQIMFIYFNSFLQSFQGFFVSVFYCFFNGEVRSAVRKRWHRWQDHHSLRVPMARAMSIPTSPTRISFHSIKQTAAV

B1: SEQ ID NO: 133 (peptide)
peptide: IVLSLD[dV]PIKLK([AEEA-AEEA-γGlu-C18 diacid])QILLKQERQK[Aib]QREQAEKNKQILERV-NH2
modifications: N-terminus assumed
SMILES: CC[C@H](C)[C@H](N)C(=O)N[C@H](C(=O)N[C@@H](CC(C)C)C(=O)N[C@@H](CO)C(=O)N[C@@H](CC(C)C)C(=O)N[C@@H](CC(=O)O)C(=O)N[C@@H](C(=O)N1CCC[C@H]1C(=O)N[C@H](C(=O)N[C@@H](CCCCN)C(=O)N[C@@H](CC(C)C)C(=O)N[C@@H](CCCCNC(=O)COCCOCCNC(=O)COCCOCCNC(=O)CC[C@H](NC(=O)CCCCCCCCCCCCCCCCC(=O)O)C(=O)O)C(=O)N[C@@H](CCC(N)=O)C(=O)N[C@H](C(=O)N[C@@H](CC(C)C)C(=O)N[C@@H](CC(C)C)C(=O)N[C@@H](CCCCN)C(=O)N[C@@H](CCC(N)=O)C(=O)N[C@@H](CCC(=O)O)C(=O)N[C@@H](CCCNC(=N)N)C(=O)N[C@@H](CCC(N)=O)C(=O)N[C@@H](CCCCN)C(=O)NC(C)(C)C(=O)N[C@@H](CCC(N)=O)C(=O)N[C@@H](CCCNC(=N)N)C(=O)N[C@@H](CCC(=O)O)C(=O)N[C@@H](CCC(N)=O)C(=O)N[C@@H](C)C(=O)N[C@@H](CCC(=O)O)C(=O)N[C@@H](CCCCN)C(=O)N[C@@H](CC(N)=O)C(=O)N[C@@H](CCCCN)C(=O)N[C@@H](CCC(N)=O)C(=O)N[C@H](C(=O)N[C@@H](CC(C)C)C(=O)N[C@@H](CCC(=O)O)C(=O)N[C@@H](CCCNC(=N)N)C(=O)N[C@H](C(N)=O)C(C)C)[C@@H](C)CC)[C@@H](C)CC)[C@@H](C)CC)C(C)C)C(C)C
On to B1, for which the EC50 [nM], 0% HSA is 0.09 nM and the EC50 [nM], 0.1% HSA is 3.19 nM.

B2: SEQ ID NO: 134 (peptide)
peptide: IVLSLD[dV]PIKLK([AEEA-AEEA-γGlu-C18 diacid])QILLKQERQK[Aib]QREKAEKNKQILAQV-NH2
modifications: N-terminus assumed
SMILES: CC[C@H](C)[C@H](N)C(=O)N[C@H](C(=O)N[C@@H](CC(C)C)C(=O)N[C@@H](CO)C(=O)N[C@@H](CC(C)C)C(=O)N[C@@H](CC(=O)O)C(=O)N[C@@H](C(=O)N1CCC[C@H]1C(=O)N[C@H](C(=O)N[C@@H](CCCCN)C(=O)N[C@@H](CC(C)C)C(=O)N[C@@H](CCCCNC(=O)COCCOCCNC(=O)COCCOCCNC(=O)CC[C@H](NC(=O)CCCCCCCCCCCCCCCCC(=O)O)C(=O)O)C(=O)N[C@@H](CCC(N)=O)C(=O)N[C@H](C(=O)N[C@@H](CC(C)C)C(=O)N[C@@H](CC(C)C)C(=O)N[C@@H](CCCCN)C(=O)N[C@@H](CCC(N)=O)C(=O)N[C@@H](CCC(=O)O)C(=O)N[C@@H](CCCNC(=N)N)C(=O)N[C@@H](CCC(N)=O)C(=O)N[C@@H](CCCCN)C(=O)NC(C)(C)C(=O)N[C@@H](CCC(N)=O)C(=O)N[C@@H](CCCNC(=N)N)C(=O)N[C@@H](CCC(=O)O)C(=O)N[C@@H](CCCCN)C(=O)N[C@@H](C)C(=O)N[C@@H](CCC(=O)O)C(=O)N[C@@H](CCCCN)C(=O)N[C@@H](CC(N)=O)C(=O)N[C@@H](CCCCN)C(=O)N[C@@H](CCC(N)=O)C(=O)N[C@H](C(=O)N[C@@H](CC(C)C)C(=O)N[C@@H](C)C(=O)N[C@@H](CCC(N)=O)C(=O)N[C@H](C(N)=O)C(C)C)[C@@H](C)CC)[C@@H](C)CC)[C@@H](C)CC)C(C)C)C(C)C
As to B2, the EC50 [nM], 0% HSA was 0.07 nM and the EC50 [nM], 0.1% HSA worked out at 3.44 nM.

B3: SEQ ID NO: 131 (peptide)
peptide: IVLSLD[dV]PIKLK([AEEA-AEEA-γGlu-C18 diacid])QILLEQERQK[Aib]QRQQAEKNKQILAQV-NH2
modifications: N-terminus assumed
SMILES: CC[C@H](C)[C@H](N)C(=O)N[C@H](C(=O)N[C@@H](CC(C)C)C(=O)N[C@@H](CO)C(=O)N[C@@H](CC(C)C)C(=O)N[C@@H](CC(=O)O)C(=O)N[C@@H](C(=O)N1CCC[C@H]1C(=O)N[C@H](C(=O)N[C@@H](CCCCN)C(=O)N[C@@H](CC(C)C)C(=O)N[C@@H](CCCCNC(=O)COCCOCCNC(=O)COCCOCCNC(=O)CC[C@H](NC(=O)CCCCCCCCCCCCCCCCC(=O)O)C(=O)O)C(=O)N[C@@H](CCC(N)=O)C(=O)N[C@H](C(=O)N[C@@H](CC(C)C)C(=O)N[C@@H](CC(C)C)C(=O)N[C@@H](CCC(=O)O)C(=O)N[C@@H](CCC(N)=O)C(=O)N[C@@H](CCC(=O)O)C(=O)N[C@@H](CCCNC(=N)N)C(=O)N[C@@H](CCC(N)=O)C(=O)N[C@@H](CCCCN)C(=O)NC(C)(C)C(=O)N[C@@H](CCC(N)=O)C(=O)N[C@@H](CCCNC(=N)N)C(=O)N[C@@H](CCC(N)=O)C(=O)N[C@@H](CCC(N)=O)C(=O)N[C@@H](C)C(=O)N[C@@H](CCC(=O)O)C(=O)N[C@@H](CCCCN)C(=O)N[C@@H](CC(N)=O)C(=O)N[C@@H](CCCCN)C(=O)N[C@@H](CCC(N)=O)C(=O)N[C@H](C(=O)N[C@@H](CC(C)C)C(=O)N[C@@H](C)C(=O)N[C@@H](CCC(N)=O)C(=O)N[C@H](C(N)=O)C(C)C)[C@@H](C)CC)[C@@H](C)CC)[C@@H](C)CC)C(C)C)C(C)C
Molecule B3 had an EC50 [nM], 0% HSA of 0.11 nM and an EC50 [nM], 0.1% HSA of 2.44 nM.

B4: SEQ ID NO: 132 (peptide)
peptide: IVLSLD[dV]PIKLK([AEEA-AEEA-γGlu-C18 diacid])QILLEQERQK[Aib]QREQAEKNKQILERV-NH2
modifications: N-terminus assumed
SMILES: CC[C@H](C)[C@H](N)C(=O)N[C@H](C(=O)N[C@@H](CC(C)C)C(=O)N[C@@H](CO)C(=O)N[C@@H](CC(C)C)C(=O)N[C@@H](CC(=O)O)C(=O)N[C@@H](C(=O)N1CCC[C@H]1C(=O)N[C@H](C(=O)N[C@@H](CCCCN)C(=O)N[C@@H](CC(C)C)C(=O)N[C@@H](CCCCNC(=O)COCCOCCNC(=O)COCCOCCNC(=O)CC[C@H](NC(=O)CCCCCCCCCCCCCCCCC(=O)O)C(=O)O)C(=O)N[C@@H](CCC(N)=O)C(=O)N[C@H](C(=O)N[C@@H](CC(C)C)C(=O)N[C@@H](CC(C)C)C(=O)N[C@@H](CCC(=O)O)C(=O)N[C@@H](CCC(N)=O)C(=O)N[C@@H](CCC(=O)O)C(=O)N[C@@H](CCCNC(=N)N)C(=O)N[C@@H](CCC(N)=O)C(=O)N[C@@H](CCCCN)C(=O)NC(C)(C)C(=O)N[C@@H](CCC(N)=O)C(=O)N[C@@H](CCCNC(=N)N)C(=O)N[C@@H](CCC(=O)O)C(=O)N[C@@H](CCC(N)=O)C(=O)N[C@@H](C)C(=O)N[C@@H](CCC(=O)O)C(=O)N[C@@H](CCCCN)C(=O)N[C@@H](CC(N)=O)C(=O)N[C@@H](CCCCN)C(=O)N[C@@H](CCC(N)=O)C(=O)N[C@H](C(=O)N[C@@H](CC(C)C)C(=O)N[C@@H](CCC(=O)O)C(=O)N[C@@H](CCCNC(=N)N)C(=O)N[C@H](C(N)=O)C(C)C)[C@@H](C)CC)[C@@H](C)CC)[C@@H](C)CC)C(C)C)C(C)C
Turning to B4, the EC50 [nM], 0% HSA worked out at 0.38 nM and the EC50 [nM], 0.1% HSA came to 8.76 nM.
